Laboratory results as given in patent publication US20170107289A1 (SORRENTO THERAPEUTICS, published 2017).
Where “and” joins values, the source holds several entries; their conditions need not be identical. Identical values can stand only once. Each block holds one binder with its values, some of them ahead of it.

Experiments:
[1] = molecular target: T1, recombinant human STAT3 proteins (human, UniProt P40763 1-770, limits assumed); assay: binding ELISA with Superblock as blocking buffer; coated antigen not named on the sheet (legend paragraph 30 says 'to human IgG'), taken as STAT3 by analogy with the title of FIG. 10; OD 450 nm; the EC50 row has no unit, x axis in ng/ml
T1 construct: It may be the same STAT3-GST as in the Biacore assay
T1 sequence (P40763 whole entry): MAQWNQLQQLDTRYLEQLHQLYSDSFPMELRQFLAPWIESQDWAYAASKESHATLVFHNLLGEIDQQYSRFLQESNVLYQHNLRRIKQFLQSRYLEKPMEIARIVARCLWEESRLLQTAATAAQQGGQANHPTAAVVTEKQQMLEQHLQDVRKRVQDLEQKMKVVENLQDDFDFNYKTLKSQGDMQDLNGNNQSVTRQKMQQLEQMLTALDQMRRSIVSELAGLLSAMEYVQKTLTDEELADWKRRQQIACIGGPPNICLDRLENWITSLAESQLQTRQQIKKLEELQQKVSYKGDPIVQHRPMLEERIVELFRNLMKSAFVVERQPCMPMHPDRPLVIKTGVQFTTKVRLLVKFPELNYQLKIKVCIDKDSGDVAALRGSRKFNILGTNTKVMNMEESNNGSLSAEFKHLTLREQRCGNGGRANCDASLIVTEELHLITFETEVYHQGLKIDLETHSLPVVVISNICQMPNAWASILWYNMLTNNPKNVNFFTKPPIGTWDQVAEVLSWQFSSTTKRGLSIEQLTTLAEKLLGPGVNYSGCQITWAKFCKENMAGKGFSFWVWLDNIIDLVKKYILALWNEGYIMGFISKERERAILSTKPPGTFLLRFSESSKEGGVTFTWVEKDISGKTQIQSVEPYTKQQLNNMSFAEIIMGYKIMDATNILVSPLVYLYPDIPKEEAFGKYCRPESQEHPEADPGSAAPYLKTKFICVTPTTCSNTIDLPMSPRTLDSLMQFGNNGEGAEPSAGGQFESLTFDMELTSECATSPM

[2] = molecular target: T1, recombinant human STAT3 proteins; assay: ELISA on recombinant human STAT3 (sheet title 'STAT 3 binding'); Abs 450
GST protein = GST protein (UniProt P08515 1-218 = GST); assay: SPR (Biacore T200), antibody captured on anti-human Fc
GST protein, sequence (P08515 whole entry): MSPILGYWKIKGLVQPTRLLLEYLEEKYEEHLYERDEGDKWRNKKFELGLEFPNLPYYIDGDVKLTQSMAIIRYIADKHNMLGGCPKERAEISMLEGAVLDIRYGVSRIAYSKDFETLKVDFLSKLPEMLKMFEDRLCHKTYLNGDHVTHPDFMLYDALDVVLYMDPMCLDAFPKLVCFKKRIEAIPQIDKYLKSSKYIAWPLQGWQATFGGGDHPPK

[3] = molecular target: T2, STAT3 in fixed or permeabilized human tumour cells (U251 glioblastoma); MDA-MB-468 / MDA-MB-435 breast cancer … (human, UniProt P40763 2-770); assay: flow cytometry (HTFC) on permeabilized U251 cells; PE anti-human IgG; MFI
T2 construct: whole, on cells; STAT3 is intracellular and the cells were permeabilized; also called cellular antigens; cellular targets
T2 sequence (P40763 2-770): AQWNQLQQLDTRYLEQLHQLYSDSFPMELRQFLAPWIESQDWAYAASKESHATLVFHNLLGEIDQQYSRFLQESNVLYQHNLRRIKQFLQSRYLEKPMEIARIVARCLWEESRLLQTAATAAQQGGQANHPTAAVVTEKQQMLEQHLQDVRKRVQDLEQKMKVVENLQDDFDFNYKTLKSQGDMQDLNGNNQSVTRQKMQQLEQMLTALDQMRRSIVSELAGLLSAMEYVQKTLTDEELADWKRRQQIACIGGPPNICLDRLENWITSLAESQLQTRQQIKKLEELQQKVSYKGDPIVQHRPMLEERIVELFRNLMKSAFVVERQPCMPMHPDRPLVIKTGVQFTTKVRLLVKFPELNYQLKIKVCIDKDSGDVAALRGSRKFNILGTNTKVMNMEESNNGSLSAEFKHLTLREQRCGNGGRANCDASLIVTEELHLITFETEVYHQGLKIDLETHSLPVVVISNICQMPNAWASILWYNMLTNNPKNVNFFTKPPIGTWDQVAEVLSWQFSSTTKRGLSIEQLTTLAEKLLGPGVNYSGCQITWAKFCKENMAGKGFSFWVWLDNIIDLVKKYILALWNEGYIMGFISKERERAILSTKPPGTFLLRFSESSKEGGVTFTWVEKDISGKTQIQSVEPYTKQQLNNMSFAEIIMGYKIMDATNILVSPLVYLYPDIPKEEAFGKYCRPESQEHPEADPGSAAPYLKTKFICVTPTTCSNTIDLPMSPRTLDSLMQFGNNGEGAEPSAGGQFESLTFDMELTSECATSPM
Method: After 45 minutes at room temperature, cells were washed twice and incubated with phycoerythrin (PE) conjugated-anti-human IgG for 20 minutes at room temperature in the dark. Cells were then washed and analyzed by high throughput flow cytometry (HTFC). The results are shown in FIG. 9 for assessment of antibody binding to cellular antigens in U251 cells.

[4] = molecular target: T1, recombinant human STAT3 proteins; assay: STAT3 binding ELISA, Hu-IgG-FAB detection (sheet title; legend paragraph 22 says 'to human IgG'); OD 450 nm; the EC50 column has no unit, x axis in ng/ml
[5] = molecular target: T2, STAT3 in fixed or permeabilized human …; assay: flow cytometry on fixed, methanol-permeabilized U251 cells; PE anti-human IgG; MFI (FL-2)
Method: (§1) Next, the binding of the candidate anti-STAT3 antibodies to cellular targets was tested in cell binding assays using MDA-MB-435 breast cancer cells and U251 cells. The cells were seeded overnight in a 96 well plate, then fixed with PFA and permeabilized with methanol. Cells were incubated with serial dilutions of the anti-STAT3 antibody candidates ST1A5, ST3G12 and ST5G12 for one hour and 30 minutes. Following incubation, the cells were washed and incubated for 30 minutes with phycoerythrin (PE) conjugated anti-human IgG. Fluorescence was measured on an Intellicyte high-throughput flow cytometry analyzer. […] Bevacizumab (Avastin), a monoclonal antibody that inhibits vascular endothelial growth factor A (VEGF-A) was used as a negative control. As shown in FIG. 8A and FIG. 8B, the anti-STAT3 antibodies ST5G12 and ST3G12 both bound STAT3, with ST5G12 being an especially strong binder.

[6] = molecular target: T1, recombinant human STAT3 proteins; assay: 'Binding ELISA, Hu-IgO Detection' (sheet title, 01052015), Superblock as blocking buffer; coated antigen not named, taken as STAT3 by analogy with the title of FIG. 10; OD 450 nm; the EC50 row has no unit, x axis in ng/ml
[7] = molecular target: T3, Recombinant human STAT3-GST (human, UniProt P40763 1-770); assay: SPR (Biacore T200), antibody captured on anti-human Fc, STAT3-GST as analyte, 1:1 model
T3 construct: The order of STAT3 and GST follows the printed name 'STAT3-GST' only; not shown: GST (glutathione S-transferase) tag
T3 sequence (P40763 whole entry): as the sequence (P40763 whole entry) above
Method: Anti-human Fc antibody (GE, BR-1008-39) was immobilized on a CMS sensor chip to approximately 1000 RU using standard NHS/EDC coupling methodology. Antibodies (approximately 10 ug/ml) were captured for 60 seconds at a flow rate of 10 ul/min Recombinant human STAT3-GST was serially diluted 2-fold into running buffer (HBS-EP+, starting from […]). All measurements were conducted at a flow rate of 30 ul/min Surfaces were regenerated with 3M MgCl₂ (from human antibody kit) for 60 seconds. A 1:1 (Langmuir) binding model was used to fit the data.

[8] = molecular target: T1, recombinant human STAT3 proteins; assay: 'Binding ELISA, Hu-IgO Detection' (sheet title), Superblock as blocking buffer; second column of the table taken as the curve labelled 901a; coated antigen not named, taken as STAT3; the EC50 row has no unit, x axis in ng/ml
[9] = molecular target: T1, recombinant human STAT3 proteins; assay: binding ELISA with Superblock as blocking buffer; second column of the table taken as the curve labelled 901a (only two curves, two columns); coated antigen not named on the sheet, taken as STAT3; the EC50 row has no unit, x axis in ng/ml
[10] = molecular target: T2, STAT3 in fixed or permeabilized human …; assay: flow cytometry on fixed, methanol-permeabilized MDA-MB-468 cells (sheet title; legend paragraph 19 says MDA-MB-435); PE anti-human IgG; MFI (FL-2)
Method: as §1

EC50 [1]: 0.122 µg/mL | EC50 (read off the curve) [2]: ~0.06 µg/mL | binding result (GST protein): no binding | EC50 (read off the curve) [3]: ~9 nM | EC50 [4]: 0.155 µg/mL | EC50 (read off the curve) [5]: ~4 nM | EC50 [6]: 0.0257 µg/mL | Kd [7]: 5.39 nM | koff [7]: 0.000322 s⁻¹ | kon [7]: 59700 M⁻¹ s⁻¹
B1: anti-STAT3 antibody ST3G12 (unmodified) (antibody, V domains shown)
VH: QVQLVQSGAEVKKPGASVKVSCKASGYTFTSYYMHWVRQAPGQGLEWMGIINPSGGSTSYAQKFQGRVTMTRDTSTSTVYMELSSLRSEDTAVYYCARSDYVHSFDIWGQGTMVTVSS
VL: QPVLTQPPSASALLGASIKLTCTLSSEHSTYTVEWYQQRPGRSPQYIMNVKSDGSYNKGDGIPDRFMGSSSGADRYLTFSNLQSDDEAEYHCGESHRIDGQVGVVFGGGTKLTVL
notes: also called naked anti-STAT3 ST3G12 antibody

EC50 (read off the curve) [2]: ~0.06 µg/mL and ~0.1 µg/mL | binding result (GST protein): no binding | EC50 [4]: 0.153 µg/mL | EC50 [8]: 0.0643 µg/mL | EC50 [9]: 0.186 µg/mL | Kd [7]: 0.222 nM | koff [7]: 0.00011 s⁻¹ | kon [7]: 494000 M⁻¹ s⁻¹
B2: compound 901a (ST3G12 conjugated to the phosphorothioate oligonucleotide, non-fluorescein version) (antibody, V domains shown)
VH: B1 VH
VL: B1 VL
modifications: phosphorothioate oligonucleotide joined to the antibody through a linker; residue(s) and chain of attachment not stated
notes: also called ST3G12-PS

EC50 (read off the curve) [5]: ~8 nM | EC50 (read off the curve) [10]: ~6 nM
B3: anti-STAT3 antibody ST1A5 (antibody, V domains shown)
VH: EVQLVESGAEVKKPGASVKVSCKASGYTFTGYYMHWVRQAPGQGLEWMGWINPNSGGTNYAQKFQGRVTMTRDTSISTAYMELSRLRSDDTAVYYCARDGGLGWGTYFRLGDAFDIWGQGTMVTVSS
VL: QSVLTQPPSVSKGLRQTATLTCTGNSNNVGNEGAAWLQQHQGHPPKLLSYRNFNRPSGISERFSASRSGNTASLTITGLQPEDEADYYCSAWDSSLSAWVFGGGTKLTVL
notes: Human antibody; it was detected with anti-human IgG
